For assay [1], the target named is T1, CD27 expressed on the cell surface (HT1080_CD27 cells) (human, UniProt P26842 20-260).
T1 sequence (looked up): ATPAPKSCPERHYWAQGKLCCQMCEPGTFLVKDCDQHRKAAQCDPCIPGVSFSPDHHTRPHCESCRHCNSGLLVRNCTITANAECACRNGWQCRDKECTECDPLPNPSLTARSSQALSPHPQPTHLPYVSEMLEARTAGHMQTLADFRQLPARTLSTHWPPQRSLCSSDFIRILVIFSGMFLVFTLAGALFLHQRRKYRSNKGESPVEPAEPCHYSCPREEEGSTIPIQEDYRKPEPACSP
As to the kind of experiment: cell-based or functional assay.

Assay [2] has as its target T2, CD27 protein (His-tagged, Sino Biological Inc. 10039-H08B1) (human, UniProt P26842 20-192).
T2 construct: bought; coated onto ELISA plates; also called human CD27; recombinant protein; not shown: His tag
T2 sequence (looked up): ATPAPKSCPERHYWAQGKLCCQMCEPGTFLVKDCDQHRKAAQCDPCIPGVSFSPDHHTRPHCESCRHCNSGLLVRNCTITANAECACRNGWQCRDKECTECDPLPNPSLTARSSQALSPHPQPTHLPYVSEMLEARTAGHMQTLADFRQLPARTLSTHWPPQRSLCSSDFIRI
Put plainly: ELISA on coated His-tagged CD27. (In general: ELISA stands for enzyme-linked immunosorbent assay.)

The target in assay [3] is T1, CD27 expressed on the cell surface …. As to the kind of experiment: cellular binding assay, HT1080_CD27 cells.
Also: test concentration or dose not given here.

B1: P018.S.04.A.A01 (antibody, V domains shown)
VH: QEQLVESGGGLVQPEGSLTLTCTESGFSFSSNAVCWVRQAPGKGLEWIACIYVDSIGSTWYASWAKGRFTISKTSSTTVTLQMTSLTAADTATYFCARGDNIAYFMLWGPGTLVTVSS
VL: DIVMTQTPASVEAAVGGTVTIRCQASESITSFLSWYQQKPGQPPKLLIYKISTLASGVPSRFKASGSGTEFTLTISDLESADAAAYYCQGYYYYSNVVYASNGFGGGTEVVVK
notes: V regions on human Ig constant parts; also called AB27_64
As to B1, in assay [1], the “IL-8, cross-linked by F(ab')2 fragment [abs. corr.]” value (shortened to “IL-8, cross-linked”) is 1.47 abs. corr and the “IL-8 [abs. corr.]” value is 0.176 abs. corr. The “ELISA [abs. corr.]” value in assay [2] was found to be 3.32 abs. corr. Also, the “Cellular binding assay [RFU]” value in assay [3] came to 297 RFU.

B2: P018.S.08.A.G02 (antibody, V domains shown)
VH: QSVEESGGRLVTPGTPLTLTCTVSGFSLSTYAMSWVRQAPGKGLEWIGMNTRSGIIYYASWAKGRFTISKTSTTVHLKITSPTTEDTATYFCARDLYADVSGYYLGLWGPGTLVTVSS
VL: AQVLTQTPSSVSAAVGGTVTINCQASQSLYNNKNLAWYQQKPGQPPKLLIYYASTLASGVSSRFKGSGSGTQFTLTISDLESDDAATYYCQGEFICSSADCVVFGGGTAVVVK
notes: V regions on human Ig constant parts; also called AB27_141
In the case of B2, in assay [1], the “IL-8, cross-linked” value amounted to 2.48 abs. corr and the “IL-8 [abs. corr.]” value is 0.598 abs. corr. In addition, the “ELISA [abs. corr.]” value in assay [2] worked out at 3.32 abs. corr. Moreover, the “Cellular binding assay [RFU]” value in assay [3] worked out at 315 RFU.

B3: P018.S.04.A.D05 (antibody, V domains shown)
VH: QSLEESGGRLVTPGTPLTLTCTASGIDLSRHAINWVRQAPGKGLEYIGTIYASGSTFYASGAKGRFTISKTSTTVDLGITSLTTEDTATYFCARGITIEWFDLWGQGTLVTVSS
VL: AAVLTQTPSSVSAAVGGTVTINCQSSPSVYSNYLSWFQQKPGQPPKLLIYGAATLASGVPSRFRGSGSGTEFTLTITDVQSDDAATYYCLGGYSDTADTIFGGGTEVVVK
notes: V regions on human Ig constant parts; also called AB27_73
For B3, in assay [1], the “IL-8, cross-linked” value is 1.08 abs. corr and the “IL-8 [abs. corr.]” value was 0.241 abs. corr. In assay [2], the “ELISA [abs. corr.]” value amounted to 3.33 abs. corr. For the same molecule, the “Cellular binding assay [RFU]” value in assay [3] was 292 RFU.

B4: P018.S.05.A.B02 (antibody, V domains shown)
VH: QSLEESGGRLVTPGTPLTLTCKVSGFSLSSYDMIWVRQAPGKGLEWIGIVSTGGSAGYASWAKGRFTITKTSTTVDLKITSPTTEDTATYFCARIISGGRDLWGPGTLVTVSS
VL: DIVMTQTPASVEAAVGGTVTIKCQASESISSRLAWYQQKPGQPPKLLIYSASTLAFGVSSRFKGSGSGTQFTLTISDLESADAATYYCQSYYYSSTASYASNNAFGGGTEVVVK
notes: V regions on human Ig constant parts; also called AB27_83
As to B4, in assay [1], the “IL-8, cross-linked” value came to 1.95 abs. corr and the “IL-8 [abs. corr.]” value was found to be 0.633 abs. corr. The “ELISA [abs. corr.]” value in assay [2] was 3.32 abs. corr. Moreover, the “Cellular binding assay [RFU]” value in assay [3] came out at 259 RFU.

B5: P018.S.03.A.C05 (antibody, V domains shown)
VH: QSLEESGGGLVQPGGTLTLTCKASGIDFSSSFYMCWVRQAPGKGLERIACTYNRDGSTYYASWAKGRFTISKTSSTTVTLQMASLTVADTATYFCARDDGYPGSGYVFNLWGPGTLVTVSS
VL: DVVMTQTPASVEAAVGGTVTIKCQASQSVSSYLSWYQQKPGQRPKLLIYGASNLESGVPSRFKGSGSGTEFTLTISGVQSDDAATYYCQGGYYSSGADNNSFGGGTELVVK
notes: V regions on human Ig constant parts; also called AB27_46
Turning to B5, in assay [1], the “IL-8, cross-linked” value is 1.63 abs. corr and the “IL-8 [abs. corr.]” value was determined as 0.544 abs. corr. Further, the “ELISA [abs. corr.]” value in assay [2] was 3.32 abs. corr. Further, in assay [3], the “Cellular binding assay [RFU]” value was 303 RFU.

B6: P018.S.02.A.E06 (antibody, V domains shown)
VH: QSLEESGGRLVTPGTPLTLTCTASGFSLSNYSMNWVRQAPGKGLEWIGIINMYGSTYYATWAKGRFTISKTSTTVDLKMTSLTTEDTATYFCARDAGGSTVPWYFDLWGPGTLVTVSS
VL: AYDMTQTPASVSEPVGGTVTIKCQASESISDYLAWYQQKPGQRPKLLIYDASKLASGVPSRFSGSGSGTEFTLTISGVGSADAATYYCQQGYADSNVDNVFGGGTEVVVK
notes: V regions on human Ig constant parts; also called AB27_34
For the molecule B6, in assay [1], the “IL-8, cross-linked” value turned out to be 1.29 abs. corr and the “IL-8 [abs. corr.]” value came out at 0.308 abs. corr. Besides, in assay [2], the “ELISA [abs. corr.]” value amounted to 3.32 abs. corr. Further, the “Cellular binding assay [RFU]” value in assay [3] amounted to 331 RFU.

B7: P018.S.07.A.G02 (antibody, V domains shown)
VH: QSVEESGGRLVTPGTPLTLTCTVSGFSLSSYDMSWVRQAPGKGLEWIGWITTDGGTDYASWAKGRFTVSKASTTVDLKITSPTTEDTATYFCARGYASFNLWGQGTLVTVSS
VL: AQVLTQTPSSVSAAVGGTVTINCQSSQSVLSNSYLAWYQQKPGQPPKLLIYAASSLASGVPSRFKGSGSGTQFTLTISDLESDDAATYYCQGTDYSGGWYVAFGGGTEVVVK
notes: V regions on human Ig constant parts; also called AB27_129
Turning to B7, in assay [1], the “IL-8, cross-linked” value came to 2.41 abs. corr and the “IL-8 [abs. corr.]” value was 0.725 abs. corr. Further, the “ELISA [abs. corr.]” value in assay [2] turned out to be 3.33 abs. corr. Further, the “Cellular binding assay [RFU]” value in assay [3] worked out at 453 RFU.

B8: P018.S.03.A.F04 (antibody, V domains shown)
VH: QSVEESGGRLVTPGTPLTLTCTVSGFSLSSYAMGWVRQAPGKGLQWIGILYRNDAASYANWAKGRFTISKTSTTVDLTMPSLTTEDTATYFCVRGYVNDGYYNLWGQGTLVTVSS
VL: AYDMTQTPASVEVAVGGTVTIKCQASESIGYRLAWYQQKPGQPPKLLIFDASDLASGVPSRFKGSGSGKHFTLTISGVQSADAATYYCQQDYSYSITDNCFGGGTEVVVS
notes: V regions on human Ig constant parts; also called AB27_55
B8: in assay [1], the “IL-8, cross-linked” value worked out at 1.59 abs. corr and the “IL-8 [abs. corr.]” value came to 0.253 abs. corr. Moreover, in assay [2], the “ELISA [abs. corr.]” value was 3.31 abs. corr. Moreover, the “Cellular binding assay [RFU]” value in assay [3] was 299 RFU.

B9: P018.S.01.A.E03 (antibody, V domains shown)
VH: QSVEESGGRLVTPGTPLTLTCTVSGFSLSSYAMGWVRQAPGKGLQWIGILYRNDAASYANWAKGRFTISKTSTTVDLTMPSLTTEDTATYFCVRGYVNDGYYNLWGQGTLVTVSS
VL: AYDMTQTPASVEVAVGGTVTIKCQASESIGYRLAWYQQKSGQPPKLLIFDASDLASGVPSRFKGSGSGKHFTLTISGVQSADAATYYCQQDYSYSIIDNSFGGGTEVVVK
notes: V regions on human Ig constant parts; also called AB27_15
On to B9, for which, in assay [1], the “IL-8, cross-linked” value turned out to be 1.22 abs. corr and the “IL-8 [abs. corr.]” value was 0.436 abs. corr. Further, the “ELISA [abs. corr.]” value in assay [2] amounted to 3.3 abs. corr. In addition, the “Cellular binding assay [RFU]” value in assay [3] stood at 335 RFU.

B10: P018.S.10.A.F01 (antibody, V domains shown)
VH: QSLEESGGGLVQPEGSLTLTCTASGFSFSSSDYMCWVRQAPGKGLEWIACMYTGSVEHTYYANWAEGRFTISKTSSTTVTLQMTSLTAADTATYFCARSPTGYPDYGYGGFSLWGPGTLVTVSS
VL: ALVMTQTPSSVSAAVGGTVTINCQASQNIYSNLAWYQQKSGQRPKLLIHGASNLESGVPSRFKGSGSGTEFTLTISDLESADAATYYCQSAYYSGGPDMAFGGGTEVVVK
notes: V regions on human Ig constant parts; also called AB27_179
With B10, in assay [1], the “IL-8, cross-linked” value worked out at 1.05 abs. corr and the “IL-8 [abs. corr.]” value was -0.011 abs. corr. In assay [2], the “ELISA [abs. corr.]” value was determined as 3.31 abs. corr. Moreover, the “Cellular binding assay [RFU]” value in assay [3] came to 329 RFU.

B11: P018.S.09.A.H03 (antibody, V domains shown)
VH: QSLEESGGRLVTPDESLTLTCTVSGFSLSSNAMIWVRQAPGKGLEWIGIIDTGGSAYYASWAKGRFTISKTSTTVDLKITSPTTEDTATYFCARDRYTDSSGYNLWGQGTLVTVSS
VL: DIVMTQTPASVEAAVGGTVTIKCQASQSIGASLAWYKQKPGQPPKLLIYSASWLASGVPSRFKGSGSGTEFTLTISDLASADAATYYCQSYYYRSSSGYGYAFGGGTEVVVK
notes: V regions on human Ig constant parts; also called AB27_160
Consider B11, for which, in assay [1], the “IL-8, cross-linked” value is 2.13 abs. corr and the “IL-8 [abs. corr.]” value was found to be 0.578 abs. corr. Besides, the “ELISA [abs. corr.]” value in assay [2] was 3.54 abs. corr. For the same molecule, the “Cellular binding assay [RFU]” value in assay [3] turned out to be 268 RFU.

B12: P018.S.10.A.F05 (antibody, V domains shown)
VH: QSVEESGGRLVTPGTPLTLTCTVSGFSLSGYHMCWVRQAPGKGLQYIGIIGSNGVTYYASWAKSRSTITRNTNENTVTLKMTSLTTEDTATYFCARSSGWGARFNLWGQGTLVTVSS
VL: AQVLTQTPASVSAAVGGTVTINCQASQSVYNDNELSWYQQKPGQPPKLLIYKASTLTSGVPLRFSGSGSGTQFTLTISDVQSDDAATYYCLGGGSTPSDSTFGGGTEVVVK
notes: V regions on human Ig constant parts; also called AB27_181
For B12, in assay [1], the “IL-8, cross-linked” value was 1.34 abs. corr and the “IL-8 [abs. corr.]” value was found to be 0.267 abs. corr. In assay [2], the “ELISA [abs. corr.]” value is 3.49 abs. corr. In assay [3], the “Cellular binding assay [RFU]” value amounted to 335 RFU.

B13: P018.S.10.A.G03 (antibody, V domains shown)
VH: QSVEESGGRLVTPGTPLTLTCTVSGFTISSYHMCWVRQAPGKGLQYIGIIGSNGNTYYASWAKSRSTITRNTNENTVTLKMTSLTTEDTATYFCARSSGWGARFNLWGQGTLVTVSS
VL: AQVLTQTPSSVSAAVGGTVTINCQASQSVYNDNELSWYQQKPGQPPKLLIYKASTLTSGVPLRFSGSGSGTQFTLTISDVQSDDAATYYCLGGGSTPSDSTFGGGTEVVVK
notes: V regions on human Ig constant parts; also called AB27_182
With B13, in assay [1], the “IL-8, cross-linked” value is 1.3 abs. corr and the “IL-8 [abs. corr.]” value is -0.18 abs. corr. For the same molecule, the “ELISA [abs. corr.]” value in assay [2] stood at 3.31 abs. corr. Moreover, in assay [3], the “Cellular binding assay [RFU]” value stood at 386 RFU.

B14: P018.S.10.A.A06 (antibody, V domains shown)
VH: QSVEESGGRLVTPGTPLTLTCTVSGFSLSGYHMCWVRQAPGKGLQYIGIIGSNGNTYYASWAKSRSTITRNTNENTVTLKMTSLTTEDTATYFCARSSGWGARFNLWGQGTLVTVSS
VL: AQVLTQTPSSVSAAVGGTVTINCQASQSIYNDNELSWYQQKPGQPPKLLIYKASTLASGVPLRFSGSGSGTQFTLTISDVQSDVAATYYCLGGGMTPSDTTFGGGTEVVVK
notes: V regions on human Ig constant parts; also called AB27_165
B14: in assay [1], the “IL-8, cross-linked” value was determined as 1.12 abs. corr and the “IL-8 [abs. corr.]” value is -0.13 abs. corr. The “ELISA [abs. corr.]” value in assay [2] came to 3.18 abs. corr. Besides, the “Cellular binding assay [RFU]” value in assay [3] was 414 RFU.

For the origin of these results see patent US20210253725A1 (BIONTECH, published 2021).
